Assay results as given in the supplement of paper PMC10567573.

B1: TRIM35 (parent)
chain: DKELLCCSCQADPRHQGHRVQPVK

Variants of: B1
Experiment: protein stability index of a GFP-peptide fusion (GPS, HEK-293T) (PSI 1-6); higher = more stable
Details: c terminus: a fixed tail appended
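Note: lentivirally expressed fusions sorted by FACS into six bins by GFP to DsRed ratio, PSI derived from sequencing read proportions per bin multiplied by bin number.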

Variant | protein stability index
DKELLCCSCQADPRHQGHDVQPVK [R19D] | 4.79
DKELLCCSCQADPRHQGHHVQPVK [R19H] | 3.17
DKELLCCSCQAQPRHQGHRVQPVK [D12Q] | 3.4
DKELLCCSCQARPRHQGHRVQPVK [D12R] | 3.21
DKELLCCSCQANPRHQGHRVQPVK [D12N] | 3.12
DKELLCCSCQAVPRHQGHRVQPVK [D12V] | 3.21
DKELLCCSCQAGPRHQGHRVQPVK [D12G] | 3.13
DKELLCCSCQAKPRHQGHRVQPVK [D12K] | 3.81
DKELLCCSCQAHPRHQGHRVQPVK [D12H] | 2.89
DKELLCCSCQAPPRHQGHRVQPVK [D12P] | 2.78
DKELLCCSCQASPRHQGHRVQPVK [D12S] | 3.06
DKELLCCSCQAFPRHQGHRVQPVK [D12F] | 2.73
DKELLCCSCQAWPRHQGHRVQPVK [D12W] | 3.48
DKELLCCSCQAYPRHQGHRVQPVK [D12Y] | 2.75
DKELLCCSCQAIPRHQGHRVQPVK [D12I] | 2.45
DKELLCCSCQAAPRHQGHRVQPVK [D12A] | 3.52
DKELLCCSCQAEPRHQGHRVQPVK [D12E] | 3.78
DKELLCCSCQACPRHQGHRVQPVK [D12C] | 4.09
DKELLCCSCQALPRHQGHRVQPVK [D12L] | 2.53
DKELLCCSCQATPRHQGHRVQPVK [D12T] | 3.01
DKELLCCSCQAMPRHQGHRVQPVK [D12M] | 2.72
DKELLCCSCQYDPRHQGHRVQPVK [A11Y] | 2.93
DKELLCCSCQIDPRHQGHRVQPVK [A11I] | 3.52
DKELLCCSCQDDPRHQGHRVQPVK [A11D] | 4.08

Variant | protein stability index
DKELLCCSCQWDPRHQGHRVQPVK [A11W] | 2.84
DKELLCCSCQNDPRHQGHRVQPVK [A11N] | 4.24
DKELLCCSCQQDPRHQGHRVQPVK [A11Q] | 3.41
DKELLCCSCQSDPRHQGHRVQPVK [A11S] | 3.67
DKELLCCSCQGDPRHQGHRVQPVK [A11G] | 3.95
DKELLCCSCQEDPRHQGHRVQPVK [A11E] | 3.26
DKELLCCSCQVDPRHQGHRVQPVK [A11V] | 3.13
DKELLCCSCQMDPRHQGHRVQPVK [A11M] | 2.76
DKELLCCSCQLDPRHQGHRVQPVK [A11L] | 3.46
DKELLCCSCQPDPRHQGHRVQPVK [A11P] | 3.87
DKELLCCSCQCDPRHQGHRVQPVK [A11C] | 3.23
DKELLCCSCQFDPRHQGHRVQPVK [A11F] | 4.14
DKELLCCSCQRDPRHQGHRVQPVK [A11R] | 3.85
DKELLCCSCQHDPRHQGHRVQPVK [A11H] | 3.29
DKELLCCSCQKDPRHQGHRVQPVK [A11K] | 4.3
DKELLCCSCQTDPRHQGHRVQPVK [A11T] | 4.25
DKELLCCSCQADCRHQGHRVQPVK [P13C] | 4.78
DKELLCCSCQADLRHQGHRVQPVK [P13L] | 3.76
DKELLCCSCQADGRHQGHRVQPVK [P13G] | 3
DKELLCCSCQADWRHQGHRVQPVK [P13W] | 2.31
DKELLCCSCQADMRHQGHRVQPVK [P13M] | 2.71
DKELLCCSCQADARHQGHRVQPVK [P13A] | 3.04
DKELLCCSCQADDRHQGHRVQPVK [P13D] | 3.44
DKELLCCSCQADKRHQGHRVQPVK [P13K] | 3.15

Variant | protein stability index
DKELLCCSCQADERHQGHRVQPVK [P13E] | 3.44
DKELLCCSCQADRRHQGHRVQPVK [P13R] | 3.41
DKELLCCSCQADSRHQGHRVQPVK [P13S] | 1.97
DKELLCCSCQADIRHQGHRVQPVK [P13I] | 3.69
DKELLCCSCQADHRHQGHRVQPVK [P13H] | 3.64
DKELLCCSCQADTRHQGHRVQPVK [P13T] | 3.34
DKELLCCSCQADVRHQGHRVQPVK [P13V] | 2.8
DKELLCCSCQADQRHQGHRVQPVK [P13Q] | 3.88
DKELLCCSCQADNRHQGHRVQPVK [P13N] | 3.79
DKELLCCSCQADYRHQGHRVQPVK [P13Y] | 2.79
DKELLCCSCQADFRHQGHRVQPVK [P13F] | 2.31
DKELLCCSCQADPRHQGWRVQPVK [H18W] | 4.14
DKELLCCSCQADPRHQGPRVQPVK [H18P] | 2.6
DKELLCCSCQADPRHQGQRVQPVK [H18Q] | 3.29
DKELLCCSCQADPRHQGARVQPVK [H18A] | 3.89
DKELLCCSCQADPRHQGSRVQPVK [H18S] | 4.38
DKELLCCSCQADPRHQGKRVQPVK [H18K] | 4.16
DKELLCCSCQADPRHQGGRVQPVK [H18G] | 4.1
DKELLCCSCQADPRHQGNRVQPVK [H18N] | 3.98
DKELLCCSCQADPRHQGLRVQPVK [H18L] | 3.65
DKELLCCSCQADPRHQGVRVQPVK [H18V] | 2.73
DKELLCCSCQADPRHQGIRVQPVK [H18I] | 3.9
DKELLCCSCQADPRHQGCRVQPVK [H18C] | 2.75
DKELLCCSCQADPRHQGTRVQPVK [H18T] | 3.88

Variant | protein stability index
DKELLCCSCQADPRHQGMRVQPVK [H18M] | 3.97
DKELLCCSCQADPRHQGDRVQPVK [H18D] | 3.91
DKELLCCSCQADPRHQGRRVQPVK [H18R] | 3.6
DKELLCCSCQADPQHQGHRVQPVK [R14Q] | 3.75
DKELLCCSCQADPKHQGHRVQPVK [R14K] | 3.37
DKELLCCSCQADPLHQGHRVQPVK [R14L] | 3.43
DKELLCCSCQADPFHQGHRVQPVK [R14F] | 3.35
DKELLCCSCQADPDHQGHRVQPVK [R14D] | 4.05
DKELLCCSCQADPSHQGHRVQPVK [R14S] | 3.58
DKELLCCSCQADPTHQGHRVQPVK [R14T] | 3.52
DKELLCCSCQADPVHQGHRVQPVK [R14V] | 2.95
DKELLCCSCQADPPHQGHRVQPVK [R14P] | 4.18
DKELLCCSCQADPEHQGHRVQPVK [R14E] | 3.85
DKELLCCSCQADPAHQGHRVQPVK [R14A] | 4.06
DKELLCCSCQADPNHQGHRVQPVK [R14N] | 4.13
DKELLCCSCQADPYHQGHRVQPVK [R14Y] | 3.35
DKELLCCSCQADPMHQGHRVQPVK [R14M] | 3.97
DKELLCCSCQADPWHQGHRVQPVK [R14W] | 2.46
DKELLCCSCQADPCHQGHRVQPVK [R14C] | 4.24
DKELLCCSCQADPHHQGHRVQPVK [R14H] | 3.69
DKELLCCSCQADPGHQGHRVQPVK [R14G] | 3.03
DKELLCCSCQADPIHQGHRVQPVK [R14I] | 4.18
